In patent US20140024050A1 (published 2014):
Bridges are numbered along the chain shown (N, C = ends). Where no end group is shown, it is not given here.

T1: Alexa-488 labeled PIVKAII Gla domain peptide (13-27), cyclized (disulfide 5-10 (inferred); also: Alexa Fluor 488 attached via TFP active ester, site not given here)
T1 construct: also called Alexa488-PIVKAII (13-27); Alexa488-PIVKAII peptide (13-27 cyc)
T1 peptide: LERECVEETCSYEEA

B1: Gla domain Factor VII peptide (sequence 13) (peptide)
peptide: LERECKEEQCSFEEA
notes: also called PIVKAII Gla domain (13-27) analog; PIVKAII peptide analog
B2: anti-PIVKA-II monoclonal antibody 3C10 (hybridoma-derived) (antibody, V domains shown)
VH: EVQLVESGGDLVKPGGSLKLSCAASGFTFSSYGMSWVRQTPDKRLEWVATISRGGSSTYYPDSVKGRFTISRDNAKNNLYLQMSSLKSEDTAMYYCASLNYGNFFDYWGQGTTLTVSS
VL: DVVMTQTPLSLPVSLGDQASISCRSSQSLVHSNGNTYLHWYLQKPGQSPKLLIYKVSNRFSGVPDRFSGSGSGTDFTLKISRVEAEDLGVYFCSQNRHVPPTFGGGTKLEIKR
notes: Mouse monoclonal from a GANP transgenic C57BL/6 mouse immunized with PIVKA-II 13-27 peptide-KLH; For the Kd by quenching the antibody carried Black Hole Quencher (I.R. 2.3); also called mAb 3C10; clone 3C10
B3: PIVKAII (13-27) peptide, unlabeled (peptide)
peptide: LERECVEETCSYEEA
notes: also called PIVKA-II peptide (13-27)
B4: Gla domain Factor X peptide (sequence 12) (peptide)
peptide: LERECMEETCSYEEA
notes: as for B1
B5: Gla domain Protein S peptide (sequence 15) (peptide)
peptide: LERECIEELCNKEEA
notes: as for B1
B6: Gla domain Factor IX peptide (sequence 11) (peptide)
peptide: LERECMEEKCSFEEA
notes: as for B1
B7: Gla domain Protein Z peptide (sequence 16) (peptide)
peptide: LEKECYEEICVYEEA
notes: as for B1
B8: Gla domain Protein C peptide (sequence 14) (peptide)
peptide: LERECIEEICDFEEA
notes: as for B1

Assays:
[1] = target: B2; assay: FCS displacement: 2 nM Alexa488-PIVKAII (13-27) premixed with 10 nM mAb 3C10, analog added, overnight
Description: (§1) Then, various PIVKAII Gla domain (13-27) analogs were added to the sample. PIVKAII (13-27) was added as a positive control, and the original sample was used as a negative control. FCS measurements were performed on each sample after overnight incubation.

[2] = target: T2, PIVKA-II antigen (heat-decarboxylated prothrombin) (UniProt P00734 44-622, Gla residues of the Gla domain decarboxylated to glutamic acid by heating dried prothrombin powder at 110 C for 8 hours); assay: FCS displacement of Alexa488-PIVKAII (13-27) from mAb 3C10 by PIVKA-II preparations
T2 construct: Residues 13-27 are counted on the Gla domain
Description: Various amounts of PIVKAII from different preparations were added to the antigen-antibody complex. After overnight incubation, FCS measurements were performed on each sample.

[3] = target: T1, Alexa-488 labeled PIVKAII Gla domain …; assay: fluorescence quenching (FRET) titration in solution, BHQ-labeled mAb, 0.05 nM Alexa488 peptide
Description: The binding curve was fit with a simple fitting model.
All binding measurements were performed in 10 mM HEPES buffer, pH 7.4, containing 0.15M NaCl, 3 mM EDTA, and 0.005% surfactant P20.

[4] = target: B2; assay: FCS displacement of Alexa488-PIVKAII (13-27) from mAb 3C10, positive control
Description: as §1

binding result [1]	Binder	other results
no binding	B1	–
–	B2	binding result [2]: binds; Kd [3]: 150 pM
–	B3	binding result [4]: binds
no binding	B4	–
no binding	B5	–
no binding	B6	–
no binding	B7	–
no binding	B8	–
